{
  "source": "paper PMC2562756",
  "key": {"[1]": {"target": "T1, DNA topoisomerase 1 (TOP1) (human, UniProt P11387 1-765)", "T1 sequence (P11387 whole entry)": "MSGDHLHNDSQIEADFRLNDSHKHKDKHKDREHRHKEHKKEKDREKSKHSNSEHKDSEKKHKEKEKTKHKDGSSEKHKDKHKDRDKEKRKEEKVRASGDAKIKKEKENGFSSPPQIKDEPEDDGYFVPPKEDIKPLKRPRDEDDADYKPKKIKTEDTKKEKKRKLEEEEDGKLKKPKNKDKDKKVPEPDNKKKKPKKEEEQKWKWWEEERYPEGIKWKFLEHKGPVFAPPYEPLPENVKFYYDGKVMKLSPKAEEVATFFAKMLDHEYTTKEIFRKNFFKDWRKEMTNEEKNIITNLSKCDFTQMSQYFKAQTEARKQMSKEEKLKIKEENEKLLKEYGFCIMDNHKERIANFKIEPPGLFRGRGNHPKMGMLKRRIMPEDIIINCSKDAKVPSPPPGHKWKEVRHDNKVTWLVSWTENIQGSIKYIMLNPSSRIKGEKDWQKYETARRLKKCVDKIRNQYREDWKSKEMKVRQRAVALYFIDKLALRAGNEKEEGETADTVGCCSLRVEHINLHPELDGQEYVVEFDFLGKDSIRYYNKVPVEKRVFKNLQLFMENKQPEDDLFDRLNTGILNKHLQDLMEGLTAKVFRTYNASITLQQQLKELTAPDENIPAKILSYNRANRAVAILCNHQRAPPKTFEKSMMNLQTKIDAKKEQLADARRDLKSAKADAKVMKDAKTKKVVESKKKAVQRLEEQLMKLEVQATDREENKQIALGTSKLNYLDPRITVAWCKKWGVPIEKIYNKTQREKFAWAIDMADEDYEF", "assay": "competition"}, "[2]": {"target": "T1, DNA topoisomerase 1 (TOP1)", "assay": "EMSA"}, "[3]": {"target": "T1, DNA topoisomerase 1 (TOP1)", "assay": "competition", "remark": "listed apart in the source"}},
  "data": [
    {"binder": "42-bp NF-kappaB binding sequence competitor (NF-kappaB-BS) (dsDNA) DNA 1: GATCCAAGGGGACTTTCCATGGATCCAAGGGGACTTTCCATG DNA 2: CATGGAAAGTCCCCTTGGATCCATGGAAAGTCCCCTTGGATC", "values": [
      {"measurement": "binding result", "setting": "[1]", "result": "no binding"}
    ]},
    {"binder": "52-bp TOP1 substrate (dsDNA) DNA 1: TCTAGAGGATTTCGAAGACTTAGAGAAATTTCGAAGATCCCCGGGCGAGCTC DNA 2: GAGCTCGCCCGGGGATCTTCGAAATTTCTCTAAGTCTTCGAAATCCTCTAGA", "values": [
      {"measurement": "binding result", "setting": "[2]", "result": "binds"}
    ]},
    {"binder": "22-bp TOP1 binding sequence competitor (TOP1-BS) (dsDNA) DNA 1: AAAAAGACTTGGAAAAATTTTT DNA 2: AAAAATTTTTCCAAGTCTTTTT", "values": [
      {"measurement": "binding result", "setting": "[3]", "result": "binds"}
    ]}
  ]
}
